In assay [1] the test system is Green Fluorescent Protein (GFP) driven by the LexA promoter. In kind it is cell-based, E. coli. Conditions: different IPTG concentrations.
Source text: In order to prevent interference from endogenous E. coli LexA, we used the mutant LexA-408, and its corresponding promoter which is not recognized by the wild type LexA. We fused LexA DBD to a monomeric LBD that undergoes ligand-induced homodimerization. Thus, in the presence of ligand, LexA DBD should be able to bind DNA and repress target gene expression.
We used a single-domain VHH camelid antibody that can be dimerized upon binding to its ligand caffeine (termed VHH-Caffeine from herein). As a negative control we chose a VHH targeting RNase A (termed VHH-Control from herein).
Detection of caffeine using a LexA-VHH fusion. We built two chimeric proteins, expressed in E. coli cytoplasm, composed of an N-terminal LexA DBD and a C-terminal VHH, and placed their expression under the control of the pLacO1 promoter induced by isopropyl β-D-1-thiogalactopyranoside (IPTG). As a reporter, we used the Green Fluorescent Protein (GFP) driven by the LexA promoter. As positive and negative controls, we expressed full-length LexA and LexA DBD. […] We then characterized the behavior of cells expressing LexAVHH-Caffeine and LexA-VHH-Control in response to increasing concentrations of IPTG and caffeine (data not shown). […] We then monitored the response of the LexA-VHH fusions to increasing concentrations of caffeine at different IPTG concentrations. […] We calculated the fold repression of LexA-VHH-Caffeine.
The subject of assay [2] is reporter GFP through pCadBA promoter. The assay is described as follows: Activation of CadC transcriptional factor by periplasmic GCN4 domain oligomerization, GFP reporter, flow cytometry. It is filed as cell-based, E. coli. Conditions: compared to construct without GCN4; 1 mM IPTG. From the text: CadC and LexA transcriptional factor DNA binding domain, Leucine zipper GCN4, VHHcafe and VHHRNase were synthesized by INTEGRATED DNA TECHNOLOGIES® (IDT®). Different DNA components such as GFP reporter, CadBA promoter, pLexA promoter and CadC variants were constructed into BIOBRICK® standard vector pSB4K5 by Gibson assembly methods. The resulting constructs were transformed into E. coli strain NEB®10beta (NEW ENGLAND BIOLABS®, NEB®) and determined their performance. In all constructs, the expression level of CadC variants are under the control of pLac-1 promoter, which can be induced by IPTG. The CadC variants control the expression of reporter GFP through pCadBA promoter.
Pick a single colony of CadC operating unit variant into 3 mL of LB/kanamycin medium and incubate in 37° C. overnight with vigorous shaking. The overnight culture is further diluted 100 fold into 3 mL of LB/kanamycin medium and incubated in 37° C. for 4 hours to reach to exponential phase (O.D=0.4˜0.6). […] The resulting cell culture was further analyzed with ATTUNE® NxT flow cytometer. […]
(A flow cytometer gives signals particle by particle.)

B1: full-length LexA: full-length LexA transcriptional repressor, positive control (protein, UniProt P0A7C2 1-202, looked up)
chain: MKALTARQQEVFDLIRDHISQTGMPPTRAEIAQRLGFRSPNAAEEHLKALARKGVIEIVSGASRGIRLLQEEEEGLPLVGRVAAGEPLLAQQHIEGHYQVDPSLFKPNADFLLRVSGMSMKDIGIMDGDLLAVHKTQDVRNGQVVVARIDDEVTVKRLKKQGNKVELLPENSEFKPIVVDLRQQSFTIEGLAVGVIRNGDWL
modifications: full-length
notes: full-length LexA transcriptional repressor, positive control
Turning to B1, the “response to increasing concentrations of caffeine” value in assay [1] is “not affected by caffeine”.

B2: CadC-wtTM-GCN4: CadC DNA binding domain, wild type CadC transmembrane region, C-terminal autodimerization leucine zipper GCN4 (protein)
chain: MQQPVVRVGEWLVTPSINQISRNGRQLTLEPRLIDLLVFFAQHSGEVLSRDELIDNVWKRSIVTNHVVTQSISELRKSLKDNDEDSPVYIATVPKRGYKLMVPVIWYSEEEGEEIMLSSPPPIPEAVPATDSPSHSLNIQNTATPPEQSPVKSKRFTTFWVWFFFLLSLGICVALVAFSSLDTRLPMLEDKVEELLSKNYHLENEVARL
Consider B2, for which the “fold activation of downstream reporter gene (GFP) expression” value in assay [2] was 50 fold.

For the origin of these results see patent publication US12517124B2, “Chimeric receptor for use in whole-cell sensors for detecting analytes of interest” (INSERM (Institut National de la Sante et de la Recherche …, priority 2017, dated 2026).
